Reference: patent US20240270846A1 (published 2024)
Changes are numbered by the printed parent chain. Names may count otherwise.

B1: CE115HA000 K64A one-arm antibody (antibody, human IgG1, kappa, L234A L235A, N297A, name in Kabat numbering)
heavy: QVQLVESGGGVVQPGRSLRLSCAASGFTFSNAWMHWVRQAPGKGLEWVAQIKAKSNNYATYYAESVAGRFTISRDDSKNSLYLQMNSLKTEDTAVYYCRYVHYGAYYGVDAWGQGTTVTVSSASTKGPSVFPLAPSSKSTSGGTAALGCLVKDYFPEPVTVSWNSGALTSGVHTFPAVLQSSGLYSLSSVVTVPSSSLGTQTYICNVNHKPSNTKVDKKVEPKSCDKTHTCPPCPAPEAAGGPSVFLFPPKPKDTLMISRTPEVTCVVVDVSHEDPEVKFNWYVDGVEVHNAKTKPREEQYASTYRVVSVLTVLHQDWLNGKEYKCKVSNKALPAPIEKTISKAKGQPREPQVYTLPPSRCELTKNQVSLSCAVKGFYPSDIAVEWESNGQPENNYKTTPPVLDSDGSFFLVSKLTVDKSRWQQGNVFSCSVMHEALHNHYTQKSLSLSPDYKDDDDK
chain: EPKSSDKTHTCPPCPAPELLGGPSVFLFPPKPKDTLMISRTPEVTCVVVDVSHEDPEVKFNWYVDGVEVHNAKTKPREEQYNSTYRVVSVLTVLHQDWLNGKEYKCKVSNKALPAPIEKTISKAKGQPREPQVCTLPPSRDELTKNQVSLWCLVKGFYPSDIAVEWESNGQPENNYKTTPPVLDSDGSFFLYSKLTVDKSRWQQGNVFSCSVMHEALHNRYTQKSLSLSP
light: DIVMTQSPLSLPVTPGEPASISCRSSQSLVHSNRNTYLHWYQQKPGQAPRLLIYKVSNRFSGVPDRFSGSGSGTDFTLKISRVEAEDVGVYYCGQGTQVPYTFGQGTKLEIKRTVAAPSVFIFPPSDEQLKSGTASVVCLLNNFYPREAKVQWKVDNALQSGNSQESVTEQDSKDSTYSLSSTLTLSKADYEKHKVYACEVTHQGLSSPVTKSFNRGEC
notes: one-arm antibody
B2: CE115HA000 V95A one-arm antibody (antibody, human IgG1, kappa, L234A L235A, N297A, name in Kabat numbering)
heavy: B1 heavy with A67K, V101A
chain: B1 chain
light: B1 light
notes: one-arm antibody
B3: CE115HA000 Y97P one-arm antibody (antibody, human IgG1, kappa, L234A L235A, N297A, name in Kabat numbering)
heavy: B1 heavy with A67K, Y103P
chain: B1 chain
light: B1 light
notes: one-arm antibody
B4: CE115HA000 Y97R one-arm antibody (antibody, human IgG1, kappa, L234A L235A, N297A, name in Kabat numbering)
heavy: B1 heavy with A67K, Y103R
chain: B1 chain
light: B1 light
notes: one-arm antibody
B5: CE115HA000 K64Q one-arm antibody (antibody, human IgG1, kappa, L234A L235A, N297A, name in Kabat numbering)
heavy: B1 heavy with A67Q
chain: B1 chain
light: B1 light
notes: one-arm antibody
B6: CE115HA000 K64E one-arm antibody (antibody, human IgG1, kappa, L234A L235A, N297A, name in Kabat numbering)
heavy: B1 heavy with A67E
chain: B1 chain
light: B1 light
notes: one-arm antibody
B7: CE115HA000 Y97S one-arm antibody (antibody, human IgG1, kappa, L234A L235A, N297A, name in Kabat numbering)
heavy: B1 heavy with A67K, Y103S
chain: B1 chain
light: B1 light
notes: one-arm antibody
B8: CE115HA000 S62P one-arm antibody (antibody, human IgG1, kappa, L234A L235A, N297A, name in Kabat numbering)
heavy: B1 heavy with S65P, A67K
chain: B1 chain
light: B1 light
notes: one-arm antibody
B9: CE115HA000 K64S one-arm antibody (antibody, human IgG1, kappa, L234A L235A, N297A, name in Kabat numbering)
heavy: B1 heavy with A67S
chain: B1 chain
light: B1 light
notes: one-arm antibody
B10: CE115HA000 V100cD one-arm antibody (antibody, human IgG1, kappa, L234A L235A, N297A, name in Kabat numbering)
heavy: B1 heavy with A67K, V109D
chain: B1 chain
light: B1 light
notes: one-arm antibody
B11: CE115HA000 V95D one-arm antibody (antibody, human IgG1, kappa, L234A L235A, N297A, name in Kabat numbering)
heavy: B1 heavy with A67K, V101D
chain: B1 chain
light: B1 light
notes: one-arm antibody
B12: CE115HA000 S77T one-arm antibody (antibody, human IgG1, kappa, L234A L235A, N297A, name in Kabat numbering)
heavy: B1 heavy with A67K, S80T
chain: B1 chain
light: B1 light
notes: one-arm antibody
B13: CE115HA000 S74P one-arm antibody (antibody, human IgG1, kappa, L234A L235A, N297A, name in Kabat numbering)
heavy: B1 heavy with A67K, S77P
chain: B1 chain
light: B1 light
notes: one-arm antibody
B14: CE115HA000 K75T one-arm antibody (antibody, human IgG1, kappa, L234A L235A, N297A, name in Kabat numbering)
heavy: B1 heavy with A67K, K78T
chain: B1 chain
light: B1 light
notes: one-arm antibody
B15: CE115HA000 Q105E one-arm antibody (antibody, human IgG1, kappa, L234A L235A, N297A, name in Kabat numbering)
heavy: B1 heavy with A67K, Q114E
chain: B1 chain
light: B1 light
notes: one-arm antibody
B16: CE115HA000 V100cP one-arm antibody (antibody, human IgG1, kappa, L234A L235A, N297A, name in Kabat numbering)
heavy: B1 heavy with A67K, V109P
chain: B1 chain
light: B1 light
notes: one-arm antibody
B17: CE115HA000 N82aD one-arm antibody (antibody, human IgG1, kappa, L234A L235A, N297A, name in Kabat numbering)
heavy: B1 heavy with A67K, N86D
chain: B1 chain
light: B1 light
notes: one-arm antibody
B18: CE115HA000 S62D one-arm antibody (antibody, human IgG1, kappa, L234A L235A, N297A, name in Kabat numbering)
heavy: B1 heavy with S65D, A67K
chain: B1 chain
light: B1 light
notes: one-arm antibody
B19: CE115HA000 V100cE one-arm antibody (antibody, human IgG1, kappa, L234A L235A, N297A, name in Kabat numbering)
heavy: B1 heavy with A67K, V109E
chain: B1 chain
light: B1 light
notes: one-arm antibody
B20: CE115HA000 S74A one-arm antibody (antibody, human IgG1, kappa, L234A L235A, N297A, name in Kabat numbering)
heavy: B1 heavy with A67K, S77A
chain: B1 chain
light: B1 light
notes: one-arm antibody
B21: CE115HA000 N76S one-arm antibody (antibody, human IgG1, kappa, L234A L235A, N297A, name in Kabat numbering)
heavy: B1 heavy with A67K, N79S
chain: B1 chain
light: B1 light
notes: one-arm antibody
B22: CE115HA000 L78I one-arm antibody (antibody, human IgG1, kappa, L234A L235A, N297A, name in Kabat numbering)
heavy: B1 heavy with A67K, L81I
chain: B1 chain
light: B1 light
notes: one-arm antibody
B23: CE115HA000 S62E one-arm antibody (antibody, human IgG1, kappa, L234A L235A, N297A, name in Kabat numbering)
heavy: B1 heavy with S65E, A67K
chain: B1 chain
light: B1 light
notes: one-arm antibody
B24: CE115HA000 V95G one-arm antibody (antibody, human IgG1, kappa, L234A L235A, N297A, name in Kabat numbering)
heavy: B1 heavy with A67K, V101G
chain: B1 chain
light: B1 light
notes: one-arm antibody
B25: CE115HA000 K64D one-arm antibody (antibody, human IgG1, kappa, L234A L235A, N297A, name in Kabat numbering)
heavy: B1 heavy with A67D
chain: B1 chain
light: B1 light
notes: one-arm antibody
B26: CE115HA000 K75R one-arm antibody (antibody, human IgG1, kappa, L234A L235A, N297A, name in Kabat numbering)
heavy: B1 heavy with A67K, K78R
chain: B1 chain
light: B1 light
notes: one-arm antibody
B27: CE115HA000 V95E one-arm antibody (antibody, human IgG1, kappa, L234A L235A, N297A, name in Kabat numbering)
heavy: B1 heavy with A67K, V101E
chain: B1 chain
light: B1 light
notes: one-arm antibody
B28: CE115HA000 V95K one-arm antibody (antibody, human IgG1, kappa, L234A L235A, N297A, name in Kabat numbering)
heavy: B1 heavy with A67K, V101K
chain: B1 chain
light: B1 light
notes: one-arm antibody
B29: CE115HA000 V95S one-arm antibody (antibody, human IgG1, kappa, L234A L235A, N297A, name in Kabat numbering)
heavy: B1 heavy with A67K, V101S
chain: B1 chain
light: B1 light
notes: one-arm antibody
B30: CE115HA000 Y97D one-arm antibody (antibody, human IgG1, kappa, L234A L235A, N297A, name in Kabat numbering)
heavy: B1 heavy with A67K, Y103D
chain: B1 chain
light: B1 light
notes: one-arm antibody
B31: CE115HA000 S62K one-arm antibody (antibody, human IgG1, kappa, L234A L235A, N297A, name in Kabat numbering)
heavy: B1 heavy with S65K, A67K
chain: B1 chain
light: B1 light
notes: one-arm antibody

target: T1, CD3 epsilon homodimer protein (UniProt P07766 23-126); test: SPR (Biacore T200), CD3 epsilon homodimer on CM4 chip, one-arm antibody as analyte; ratio to unaltered CE115HA000;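 also: surface plasmon resonance run at 25 °C with HBS-EP+ as running buffer, CD3 epsilon homodimer attached by amine coupling, antibody passed over as analyte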
T1 construct: Construct of the homodimer protein is not described; also called CD3 (CD3 epsilon)
T1 sequence (P07766 23-126): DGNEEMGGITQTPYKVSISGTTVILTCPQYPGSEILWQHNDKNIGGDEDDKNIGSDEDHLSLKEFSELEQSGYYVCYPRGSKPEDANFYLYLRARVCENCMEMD

| Binder | KD ratio (KD value of CE115HA000/KD value of the altered form) |
| --- | --- |
| B1 | 0.81 |
| B2 | 3.15 |
| B3 | 12400 |
| B4 | 23200 |
| B5 | 0.87 |
| B6 | 0.84 |
| B7 | 1180 |
| B8 | 0.77 |
| B9 | 0.85 |
| B10 | 1.64 |
| B11 | 108 |
| B12 | 0.83 |
| B13 | 0.7 |
| B14 | 0.75 |
| B15 | 0.89 |
| B16 | 0.97 |

| Binder | KD ratio (KD value of CE115HA000/KD value of the altered form) |
| --- | --- |
| B17 | 0.56 |
| B18 | 0.87 |
| B19 | 1.31 |
| B20 | 0.77 |
| B21 | 0.84 |
| B22 | 1.08 |
| B23 | 0.82 |
| B24 | 78300 |
| B25 | 0.76 |
| B26 | 0.88 |
| B27 | 50.5 |
| B28 | 1.15 |
| B29 | 4.61 |
| B30 | 64.7 |
| B31 | 0.99 |
